Measurements taken from the supplement of paper PMC10567573.

B1: PLAGL1 (parent)
chain: LELGSTEVLLDHLKAHAEEKPPSG

Variants of: B1
Experiment: protein stability index of a GFP-peptide fusion (GPS, HEK-293T) (PSI 1-6); higher = more stable
Conditions: c terminus: a fixed tail appended
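Also: lentivirally expressed fusions sorted by FACS into six bins by GFP to DsRed ratio, PSI derived from sequencing read proportions per bin multiplied by bin number.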

In order of falling protein stability index:
1. LELGSTEVELDHLKAHAEEKPPSG  5.92
2. LELGSTEVLTDHLKAHAEEKPPSG  5.87
3. LELGSTEVLLDHDKAHAEEKPPSG  5.87
4. LELGSTEVQLDHLKAHAEEKPPSG  5.84
5. LELGSTEVLKDHLKAHAEEKPPSG  5.83
6. LELGSTEVLLDHQKAHAEEKPPSG  5.76
7. LELGSTEVLNDHLKAHAEEKPPSG  5.74
8. LELGSTEVSLDHLKAHAEEKPPSG  5.72
9. LELGSTEVLADHLKAHAEEKPPSG  5.72
10. LELGSTEVNLDHLKAHAEEKPPSG  5.71
11. LELGSTEVLLDHKKAHAEEKPPSG  5.68
12. LELGSTEVLGDHLKAHAEEKPPSG  5.66
13. LELGSTEVLLDHNKAHAEEKPPSG  5.64
14. LELGSTEVLRDHLKAHAEEKPPSG  5.62
15. LELGSTEVLLDHHKAHAEEKPPSG  5.61
16. LELGSTEVGLDHLKAHAEEKPPSG  5.6
17. LELGSTEVLLDHRKAHAEEKPPSG  5.6
18. LELGSTEVLLDHSKAHAEEKPPSG  5.6
19. LELGSTEVTLDHLKAHAEEKPPSG  5.58
20. LELGSTEVPLDHLKAHAEEKPPSG  5.57
21. LELGSTEVLLDHLDAHAEEKPPSG  5.56
22. LELGSTEVLLDELKAHAEEKPPSG  5.54
23. LELGSTEVLLDHLEAHAEEKPPSG  5.5
24. LELGSEEVLLDHLKAHAEEKPPSG  5.49
25. LELGSTEVLLDPLKAHAEEKPPSG  5.48
26. LELGSTEVLLDHGKAHAEEKPPSG  5.46
27. LELGSTEVLLDHTKAHAEEKPPSG  5.46
28. LELGSTEVLLPHLKAHAEEKPPSG  5.43
29. LELGSHEVLLDHLKAHAEEKPPSG  5.42
30. LELGSTEVLMDHLKAHAEEKPPSG  5.42
31. LELGSTEVLSDHLKAHAEEKPPSG  5.42
32. LELGSTEVLQDHLKAHAEEKPPSG  5.41
33. LELGSTEVLLDHLGAHAEEKPPSG  5.39
34. LELGSKEVLLDHLKAHAEEKPPSG  5.38
35. LELGSTEVLLDHAKAHAEEKPPSG  5.38
36. LELGSTEVLPDHLKAHAEEKPPSG  5.36
37. LELGSTEVLCDHLKAHAEEKPPSG  5.35
38. LELGSTEVLDDHLKAHAEEKPPSG  5.35
39. LELGSTEVLHDHLKAHAEEKPPSG  5.35
40. LELGSTEVLLDHPKAHAEEKPPSG  5.35
41. LELGSTEVLFDHLKAHAEEKPPSG  5.3
42. LELGSTEVLLDHEKAHAEEKPPSG  5.3
43. LELGSTEELLDHLKAHAEEKPPSG  5.29
44. LELGSTDVLLDHLKAHAEEKPPSG  5.27
45. LELGSTEVLYDHLKAHAEEKPPSG  5.26
46. LELGSQEVLLDHLKAHAEEKPPSG  5.22
47. LELGSTEVLLDDLKAHAEEKPPSG  5.18
48. LELGSTEVLLDGLKAHAEEKPPSG  5.16
49. LELGSTEVHLDHLKAHAEEKPPSG  5.15
50. LELGSTEVLLDNLKAHAEEKPPSG  5.15
51. LELGSTEVLLDHLHAHAEEKPPSG  5.15
52. LELGSTEVLVDHLKAHAEEKPPSG  5.1
53. LELGSTEVLLDHMKAHAEEKPPSG  5.09
54. LELGNTEVLLDHLKAHAEEKPPSG  5.08
55. LELGSTEVALDHLKAHAEEKPPSG  5.08
56. LELGSTPVLLDHLKAHAEEKPPSG  5.07
57. LELGSTEVCLDHLKAHAEEKPPSG  5.04
58. LELGSTEDLLDHLKAHAEEKPPSG  5.01
59. LELGSTETLLDHLKAHAEEKPPSG  5
60. LELGSTEVKLDHLKAHAEEKPPSG  4.99
61. LELGSTEVVLDHLKAHAEEKPPSG  4.97
62. LELGSTEVLLDHIKAHAEEKPPSG  4.97
63. LELGSTERLLDHLKAHAEEKPPSG  4.96
64. LELGSTEVLLDHLAAHAEEKPPSG  4.93
65. LELGSTEVDLDHLKAHAEEKPPSG  4.91
66. LELGSTEVLLDSLKAHAEEKPPSG  4.9
67. LELGSTGVLLDHLKAHAEEKPPSG  4.89
68. LELGSTQVLLDHLKAHAEEKPPSG  4.89
69. LELGSTESLLDHLKAHAEEKPPSG  4.87
70. LELGSTEVLEDHLKAHAEEKPPSG  4.86
71. LELGSTENLLDHLKAHAEEKPPSG  4.85
72. LELGDTEVLLDHLKAHAEEKPPSG  4.84
73. LELGHTEVLLDHLKAHAEEKPPSG  4.84
74. LELGSTEPLLDHLKAHAEEKPPSG  4.84
75. LELGSTEVLLDHCKAHAEEKPPSG  4.84
76. LELGSTEVYLDHLKAHAEEKPPSG  4.83
77. LELGSTEVLLDQLKAHAEEKPPSG  4.82
78. LELGSTRVLLDHLKAHAEEKPPSG  4.81
79. LELGSTSVLLDHLKAHAEEKPPSG  4.81
80. LELGSTEVLWDHLKAHAEEKPPSG  4.81
81. LELGPTEVLLDHLKAHAEEKPPSG  4.79
82. LELGSTEVFLDHLKAHAEEKPPSG  4.79
83. LELGSTAVLLDHLKAHAEEKPPSG  4.78
84. LELPSTEVLLDHLKAHAEEKPPSG  4.77
85. LELGSTEVMLDHLKAHAEEKPPSG  4.77
86. LELGSNEVLLDHLKAHAEEKPPSG  4.76
87. LELGSGEVLLDHLKAHAEEKPPSG  4.75
88. LELGSTEQLLDHLKAHAEEKPPSG  4.75
89. LELGSSEVLLDHLKAHAEEKPPSG  4.71
90. LELGSTEVLLDHLCAHAEEKPPSG  4.69
91. LELGSTNVLLDHLKAHAEEKPPSG  4.67
92. LELGSTEALLDHLKAHAEEKPPSG  4.64
93. LELGSTEVRLDHLKAHAEEKPPSG  4.63
94. LELGSTEYLLDHLKAHAEEKPPSG  4.62
95. LELGSTEVLLDTLKAHAEEKPPSG  4.62
96. LELGSTEVLLDHLLAHAEEKPPSG  4.61
97. LELGSREVLLDHLKAHAEEKPPSG  4.57
98. LELGGTEVLLDHLKAHAEEKPPSG  4.56
99. LELGSTEHLLDHLKAHAEEKPPSG  4.55
100. LELGSTEVLLDHLIAHAEEKPPSG  4.55
101. LELNSTEVLLDHLKAHAEEKPPSG  4.54
102. LELGCTEVLLDHLKAHAEEKPPSG  4.51
103. LELGSTEKLLDHLKAHAEEKPPSG  4.51
104. LELGSTEVILDHLKAHAEEKPPSG  4.45
105. LELGTTEVLLDHLKAHAEEKPPSG  4.44
106. LELGSTECLLDHLKAHAEEKPPSG  4.41
107. LELGSTHVLLDHLKAHAEEKPPSG  4.39
108. LELGSCEVLLDHLKAHAEEKPPSG  4.38
109. LELGSTEVLLDRLKAHAEEKPPSG  4.37
110. LELGSTEVLLDHVKAHAEEKPPSG  4.36
111. LELGSTEVLLDCLKAHAEEKPPSG  4.32
112. LELGSTEVLLNHLKAHAEEKPPSG  4.29
113. LELGSTCVLLDHLKAHAEEKPPSG  4.27
114. LELGSPEVLLDHLKAHAEEKPPSG  4.25
115. LELGSVEVLLDHLKAHAEEKPPSG  4.24
116. LELGSTTVLLDHLKAHAEEKPPSG  4.24
117. LELGSTEVLLDHFKAHAEEKPPSG  4.22
118. LELGITEVLLDHLKAHAEEKPPSG  4.15
119. LELSSTEVLLDHLKAHAEEKPPSG  4.14
120. LELGSTEVWLDHLKAHAEEKPPSG  4.11
121. LELGSTEVLIDHLKAHAEEKPPSG  4.07
122. LELGSTEVLLAHLKAHAEEKPPSG  4
123. LELGSTEVLLDKLKAHAEEKPPSG  3.99
124. LELGSTEVLLDALKAHAEEKPPSG  3.98
125. LELTSTEVLLDHLKAHAEEKPPSG  3.95
126. LELRSTEVLLDHLKAHAEEKPPSG  3.94
127. LELGSTEILLDHLKAHAEEKPPSG  3.91
128. LELGSTEVLLDHYKAHAEEKPPSG  3.9
129. LELGSTFVLLDHLKAHAEEKPPSG  3.86
130. LELGKTEVLLDHLKAHAEEKPPSG  3.85
131. LELGSTKVLLDHLKAHAEEKPPSG  3.85
132. LELGSTEFLLDHLKAHAEEKPPSG  3.85
133. LELGSTVVLLDHLKAHAEEKPPSG  3.82
134. LELGETEVLLDHLKAHAEEKPPSG  3.8
135. LELGVTEVLLDHLKAHAEEKPPSG  3.79
136. LELGSTEWLLDHLKAHAEEKPPSG  3.79
137. LELGSTEVLLHHLKAHAEEKPPSG  3.79
138. LELGSTEVLLDHWKAHAEEKPPSG  3.78
139. LELGSTYVLLDHLKAHAEEKPPSG  3.77
140. LELGSYEVLLDHLKAHAEEKPPSG  3.76
141. LELGSMEVLLDHLKAHAEEKPPSG  3.74
142. LELGSTIVLLDHLKAHAEEKPPSG  3.69
143. LELQSTEVLLDHLKAHAEEKPPSG  3.68
144. LELGSTEVLLKHLKAHAEEKPPSG  3.65
145. LELGSFEVLLDHLKAHAEEKPPSG  3.62
146. LELGSAEVLLDHLKAHAEEKPPSG  3.58
147. LELGSTEVLLEHLKAHAEEKPPSG  3.56
148. LELGSTEVLLGHLKAHAEEKPPSG  3.56
149. LELGSTMVLLDHLKAHAEEKPPSG  3.54
150. LELGSTEMLLDHLKAHAEEKPPSG  3.54
151. LELGSTEVLLSHLKAHAEEKPPSG  3.54
152. LELGRTEVLLDHLKAHAEEKPPSG  3.5
153. LELGSTEVLLDHLFAHAEEKPPSG  3.5
154. LELGSTEVLLRHLKAHAEEKPPSG  3.46
155. LELGSTLVLLDHLKAHAEEKPPSG  3.41
156. LELGSIEVLLDHLKAHAEEKPPSG  3.4
157. LELGYTEVLLDHLKAHAEEKPPSG  3.33
158. LELVSTEVLLDHLKAHAEEKPPSG  3.28
159. LELGSTEVLLDVLKAHAEEKPPSG  3.26
160. LELGATEVLLDHLKAHAEEKPPSG  3.22
161. LELGSTELLLDHLKAHAEEKPPSG  3.21
162. LELGFTEVLLDHLKAHAEEKPPSG  3.09
163. LELGSTEVLLTHLKAHAEEKPPSG  3.07
164. LELGSTEVLLDMLKAHAEEKPPSG  3.06
165. LELGSTWVLLDHLKAHAEEKPPSG  3.04
166. LELGSTEVLLWHLKAHAEEKPPSG  3.03
167. LELGSTEVLLDILKAHAEEKPPSG  3.02
168. LELGSTEVLLDWLKAHAEEKPPSG  3
169. LELGWTEVLLDHLKAHAEEKPPSG  2.97
170. LELGQTEVLLDHLKAHAEEKPPSG  2.92
171. LELGSWEVLLDHLKAHAEEKPPSG  2.89
172. LELGSLEVLLDHLKAHAEEKPPSG  2.84
173. LELGSTEVLLDFLKAHAEEKPPSG  2.71
174. LELGSTEVLLYHLKAHAEEKPPSG  2.7
175. LELGLTEVLLDHLKAHAEEKPPSG  2.53
176. LELGSTEVLLDYLKAHAEEKPPSG  2.44
177. LELGSTEVLLCHLKAHAEEKPPSG  2.36
178. LELGMTEVLLDHLKAHAEEKPPSG  2.3
179. LELMSTEVLLDHLKAHAEEKPPSG  2.25
180. LELGSTEVLLDLLKAHAEEKPPSG  2.21
181. LELWSTEVLLDHLKAHAEEKPPSG  2.2
182. LELGSTEVLLMHLKAHAEEKPPSG  2.2
183. LELYSTEVLLDHLKAHAEEKPPSG  2.19
184. LELGSTEVLLQHLKAHAEEKPPSG  2.17
185. LELGSTEVLLVHLKAHAEEKPPSG  1.86
186. LELGSTEVLLLHLKAHAEEKPPSG  1.79
187. LELGSTEVLLFHLKAHAEEKPPSG  1.77
188. LELGSTEVLLIHLKAHAEEKPPSG  1.25
